# Several values for one entry are separate records, joined by “and”; a condition that tells them apart may be missing. Equal values may be shown once.
# B1: Inorganic pyrophosphatase wild type, P50308 (protein)
# chain: MKLSPGKNAPDVVNVLVEIPQGSNIKYEYDDEEGVIKVDRVLYTSMNYPFNYGFIPGTLEEDGDPLDVLVITNYQLYPGSVIEVRPIGILYMKDEEGEDAKIVAVPKDKTDPSFSNIKDINDLPQATKNKIVHFFEHYKELEPGKYVKISGWGSATEAKNRIQLAIKRVSGGQ
# B2: Inorganic pyrophosphatase wild type, P38576 (protein)
# chain: MANLKSLPVGDKAPEVVHMVIEVPRGSGNKYEYDPDLGAIKLDRVLPGAQFYPGDYGFIPSTLAEDGDPLDGLVLSTYPLLPGVVVEVRVVGLLLMEDEKGGDAKVIGVVAEDQRLDHIQDIGDVPEGVKQEIQHFFETYKALEAKKGKWVKVTGWRDRKAALEEVRACIARYKG
# B3: Inorganic pyrophosphatase wild type, P0A7A9 (protein)
# chain: MSLLNVPAGKDLPEDIYVVIEIPANADPIKYEIDKESGALFVDRFMSTAMFYPCNYGYINHTLSLDGDPVDVLVPTPYPLQPGSVIRCRPVGVLKMTDEAGEDAKLVAVPHSKLSKEYDHIKDVNDLPELLKAQIAHFFEHYKDLEKGKWVKVEGWENAEAAKAEIVASFERAKNK
# Details: pH 7, reversible: no, whole UniProt chain shown; for denaturant m value / denaturant midpoint (higher = more stable): GdnHCl, Tris-HCl 50 mM; for Tm: Thermal, HEPES 20 mM
# [1] = Sulfolobus acidocaldarius (strain ATCC 33909 / DSM 639 / JCM 8929 / NBRC 15157 / NCIMB 11770), 25 °C, CD
# [2] = Sulfolobus acidocaldarius (strain ATCC 33909 / DSM 639 / JCM 8929 / NBRC 15157 / NCIMB 11770), 25 °C, Fluorescence
# [3] = Sulfolobus acidocaldarius (strain ATCC 33909 / DSM 639 / JCM 8929 / NBRC 15157 / NCIMB 11770), 50 °C, CD
# [4] = Thermus thermophilus (strain ATCC 27634 / DSM 579 / HB8), 25 °C, CD
# [5] = Thermus thermophilus (strain ATCC 27634 / DSM 579 / HB8), 25 °C, Fluorescence
# [6] = Escherichia coli (strain K12), 25 °C, CD
# [7] = Escherichia coli (strain K12), 25 °C, Fluorescence
protein,measurement,setting,value
B1,denaturant m value,[1],5.5 kcal/mol/M
same,denaturant midpoint (higher = more stable),[1],3.1 M
same,denaturant m value,[2],8.13 kcal/mol/M and 6.93 kcal/mol/M and 5.98 kcal/mol/M
same,denaturant midpoint (higher = more stable),[2],3.2 M and 2.9 M and 3.1 M
same,denaturant m value,[3],6.93 kcal/mol/M and 5.74 kcal/mol/M
same,denaturant midpoint (higher = more stable),[3],2.8 M and 2.9 M
B2,denaturant m value,[4],5.74 kcal/mol/M
same,denaturant midpoint (higher = more stable),[4],4.7 M
same,denaturant m value,[5],5.74 kcal/mol/M
same,denaturant midpoint (higher = more stable),[5],5.1 M and 4.7 M
same,Tm,"Thermus thermophilus (strain ATCC 27634 / DSM 579 / HB8), CD, EDTA 5 mM",86 °C
same,Tm,"Thermus thermophilus (strain ATCC 27634 / DSM 579 / HB8), CD",96 °C
B3,denaturant m value,[6],3.35 kcal/mol/M
same,denaturant midpoint (higher = more stable),[6],4.9 M
same,denaturant m value,[7],3.35 kcal/mol/M and 2.63 kcal/mol/M
same,denaturant midpoint (higher = more stable),[7],4.9 M and 4.5 M
same,Tm,"Escherichia coli (strain K12), CD, EDTA 5 mM",58 °C

# From FireProtDB (doi:10.1006/abbi.1998.1072)
